Measured values from article PMC3045595 (Nucleic Acids Research, 2010).

Target: the molecule itself
Assay: SEC

B1: human TYW5 (tRNA yW-synthesizing enzyme 5), wild type (enzyme)
chain: MAGQHLPVPRLEGVSREQFMQHLYPQRKPLVLEGIDLGPCTSKWTVDYLSQVGGKKEVKIHVAAVAQMDFISKNFVYRTLPFDQLVQRAAEEKHKEFFVSEDEKYYLRSLGEDPRKDVADIRKQFPLLKGDIKFPEFFKEEQFFSSVFRISSPGLQLWTHYDVMDNLLIQVTGKKRVVLFSPRDAQYLYLKGTKSEVLNIDNPDLAKYPLFSKARRYECSLEAGDVLFIPALWFHNVISEEFGVGVNIFWKHLPSECYDKTDTYGNKDPTAASRAAQILDRALKTLAELPEEYRDFYARRMVLHIQDKAYSKNSE
In the case of B1, the “stoichiometry N” value is reported as 2.
